The source of these data is patent US20120322725A1 (INDIANA UNIVERSITY RESEARCH AND TECHNOLOGY, published 2012).

As a reminder, the IC50 is the concentration that gives 50% inhibition.

Read-outs that look alike come from different tables or passages of the source. Bridge positions count the residues as written; N and C are the ends. Square brackets hold non-standard residues; d marks the D form. Ends that are not written are not given here. PLA = 3-phenyllactic acid (2-hydroxy-3-phenylpropanoic acid); Abu(4-SO3H) = N[C@@H](CCS(=O)(=O)O)C(=O)O; PhLac = O=C(O)[C@@H](O)Cc1ccccc1; NSG‑1 = not defined here; NSG‑2 = not defined here

Test [1] addresses T1, GLP-1 receptor (UniProt P43220 24-463, limits assumed). Nature of the test: cell-based or functional assay.
Test [2] has as its target T2, glucagon receptor (UniProt P47871 26-477, limits assumed). Nature of the test: cell-based or functional assay.
Test [3] deals with T1, GLP-1 receptor. Nature of the test: cell-based or functional assay. This is another data set of the same source.
Test [4] concerns the target T2, glucagon receptor. Briefly: cell-based or functional assay. The source holds these as a separate data set.
Test [5] deals with T2, glucagon receptor. Nature of the test: cell-based or functional assay. This is another data set of the same source.
In test [6] the target is T2, glucagon receptor. Nature of the test: receptor binding, method not described.
Test [7] concerns the target T2, glucagon receptor. Briefly: cell-based or functional assay. The source holds these as a separate data set.
For test [8], the target named is T2, glucagon receptor. Nature of the test: assay not named in Table F; taken as receptor binding.
Test [9] has as its target T2, glucagon receptor. Briefly: cell-based or functional assay. The source holds these as a separate data set.
In test [10] the target is T2, glucagon receptor. Nature of the test: column IC50(nM) beside the cAMP columns of Table H; taken as receptor binding.
For test [11], the target named is T2, glucagon receptor. Briefly: cell-based or functional assay. The source holds these as a separate data set.
Test [12] concerns the target T2, glucagon receptor. Briefly: receptor binding, method not described. This is another data set of the same source.

T2 sequence (P47871 26-477 limits assumed): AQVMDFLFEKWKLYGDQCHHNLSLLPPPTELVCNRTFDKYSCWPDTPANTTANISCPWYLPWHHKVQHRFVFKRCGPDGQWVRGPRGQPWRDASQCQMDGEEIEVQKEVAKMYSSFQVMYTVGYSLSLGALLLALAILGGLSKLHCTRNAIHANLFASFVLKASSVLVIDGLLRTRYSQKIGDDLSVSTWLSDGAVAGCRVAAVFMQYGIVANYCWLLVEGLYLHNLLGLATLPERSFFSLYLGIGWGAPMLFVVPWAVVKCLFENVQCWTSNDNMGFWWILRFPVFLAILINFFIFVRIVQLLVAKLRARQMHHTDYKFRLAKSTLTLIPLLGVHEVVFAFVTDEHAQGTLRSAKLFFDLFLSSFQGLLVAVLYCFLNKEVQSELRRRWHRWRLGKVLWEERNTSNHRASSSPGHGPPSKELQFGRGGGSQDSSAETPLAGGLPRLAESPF

B1: [PLA6, D9, K12E16(Lactam), D28]G(6-29) (peptide)
peptide: TSDYSKYLDERRAQDFVQWLMDT
modifications: not fully specified; PLA at position 6, N-terminal to the letters given; lactam between K12 and E16
In the case of B1, the “GLP-1 EC50” value with GLP-1 receptor [1] was determined as 21 nM; in the test with GLP-1 receptor [3], 177 nM. Moreover, the “Glucagon IC50” value is 13 nM with glucagon receptor [2] and 63 nM with glucagon receptor [4].

B2: [Ac-PLA^6, E^9]Glucagon(aa6-29)-NH2 (peptide)
peptide: {Ac-PLA}-TSEYSKYLDSRRAQDFVQWLMNT-NH2
With B2, the “IC50(nM) (cAMP, inhibit 0.8 mM Glucagon)” value with glucagon receptor [5] turned out to be 38.1 nM.

B3: ANK2 (Bayer peptide) (peptide)
peptide: HSQGTFTSDYARYLDARRAREFIKWLVRGRG
On to B3, for which the “GLP-1 EC50” value with GLP-1 receptor [3] stood at 0.28 nM.

B4: [PLA6, D9, D28]Glucagon(aa6-29)-NH2 (peptide)
peptide: XTSDYSKYLDSRRAQDFVQWLMDT
modifications: PLA at position 6, N-terminal to residues 7-29; C-terminal amide
Take B4: in the test with glucagon receptor [6], the IC50 was found to be 9 nM. Moreover, in the test with glucagon receptor [7], the “IC50(nM) (cAMP, inhibit Glucagon) 0.1 nM or 0.2 nM” value was 1.32 nM.

B5: [PLA6, D9]Glucagon(aa6-29)-NH2 (peptide)
peptide: XTSDYSKYLDSRRAQDFVQWLMNT
HELM: PEPTIDE1{[O=C([C@@H](O)Cc1ccccc1)[*:2]].T.S.D.Y.S.K.Y.L.D.S.R.R.A.Q.D.F.V.Q.W.L.M.N.T.[am]}$$$$V2.0; N-terminus assumed
SMILES: CSCC[C@H](NC(=O)[C@H](CC(C)C)NC(=O)[C@H](Cc1c[nH]c2ccccc12)NC(=O)[C@H](CCC(N)=O)NC(=O)[C@@H](NC(=O)[C@H](Cc1ccccc1)NC(=O)[C@H](CC(=O)O)NC(=O)[C@H](CCC(N)=O)NC(=O)[C@H](C)NC(=O)[C@H](CCCNC(=N)N)NC(=O)[C@H](CCCNC(=N)N)NC(=O)[C@H](CO)NC(=O)[C@H](CC(=O)O)NC(=O)[C@H](CC(C)C)NC(=O)[C@H](Cc1ccc(O)cc1)NC(=O)[C@H](CCCCN)NC(=O)[C@H](CO)NC(=O)[C@H](Cc1ccc(O)cc1)NC(=O)[C@H](CC(=O)O)NC(=O)[C@H](CO)NC(=O)[C@@H](NC(=O)[C@@H](O)Cc1ccccc1)[C@@H](C)O)C(C)C)C(=O)N[C@@H](CC(N)=O)C(=O)N[C@H](C(N)=O)[C@@H](C)O
B5 registered an IC50 with glucagon receptor [6] of 13.8 nM. Also, in the test with glucagon receptor [7], the “IC50(nM) (cAMP, inhibit Glucagon) 0.1 nM or 0.2 nM” value was 6.9 nM.

B6: [PLA6, D9]Glucagon(aa6-29)-COOH (peptide)
peptide: XTSDYSKYLDSRRAQDFVQWLMNT
HELM: PEPTIDE1{[O=C([C@@H](O)Cc1ccccc1)[*:2]].T.S.D.Y.S.K.Y.L.D.S.R.R.A.Q.D.F.V.Q.W.L.M.N.T}$$$$V2.0; N-terminus assumed
SMILES: CSCC[C@H](NC(=O)[C@H](CC(C)C)NC(=O)[C@H](Cc1c[nH]c2ccccc12)NC(=O)[C@H](CCC(N)=O)NC(=O)[C@@H](NC(=O)[C@H](Cc1ccccc1)NC(=O)[C@H](CC(=O)O)NC(=O)[C@H](CCC(N)=O)NC(=O)[C@H](C)NC(=O)[C@H](CCCNC(=N)N)NC(=O)[C@H](CCCNC(=N)N)NC(=O)[C@H](CO)NC(=O)[C@H](CC(=O)O)NC(=O)[C@H](CC(C)C)NC(=O)[C@H](Cc1ccc(O)cc1)NC(=O)[C@H](CCCCN)NC(=O)[C@H](CO)NC(=O)[C@H](Cc1ccc(O)cc1)NC(=O)[C@H](CC(=O)O)NC(=O)[C@H](CO)NC(=O)[C@@H](NC(=O)[C@@H](O)Cc1ccccc1)[C@@H](C)O)C(C)C)C(=O)N[C@@H](CC(N)=O)C(=O)N[C@H](C(=O)O)[C@@H](C)O
As for B6, the IC50 with glucagon receptor [6] came to 15.5 nM. Also, the “IC50(nM) (cAMP, inhibit Glucagon) 0.1 nM or 0.2 nM” value with glucagon receptor [7] came to 13.2 nM.

B7: [PLA6, D9, E16K20(lactam), D28]G(6-29) (peptide)
peptide: {PLA}-TSDYSKYLDERRAKDFVQWLMDT-NH2
modifications: lactam 10-14
In the case of B7, the “GLP-1 EC50” value with GLP-1 receptor [1] was determined as 4 nM. Further, the “Glucagon IC50” value was 6 nM with glucagon receptor [2] and 10 to 30 nM in the test with glucagon receptor [4].

B8: [PLA6, hCys(SO3)9]Glucagon(aa6-29)-NH2 (peptide)
peptide: [PhLac]TS[Abu(4-SO3H)]YSKYLDSRRAQDFVQWLMNT-NH2
As for B8, in the test with glucagon receptor [6], the IC50 came out at 14.2 nM. In the test with glucagon receptor [7], the “IC50(nM) (cAMP, inhibit Glucagon) 0.1 nM or 0.2 nM” value is 40.2 nM.

B9: [E9, E16K20(lactam), D28]G(4~29) (peptide)
peptide: GTFTSEYSKYLDERRAKDFVQWLMDT
HELM: PEPTIDE1{G.T.F.T.S.E.Y.S.K.Y.L.D.E.R.R.A.K.D.F.V.Q.W.L.M.D.T.[am]}$PEPTIDE1,PEPTIDE1,13:R3-17:R3$$$V2.0; N-terminus assumed
SMILES: CSCC[C@H](NC(=O)[C@H](CC(C)C)NC(=O)[C@H](Cc1c[nH]c2ccccc12)NC(=O)[C@H](CCC(N)=O)NC(=O)[C@@H](NC(=O)[C@H](Cc1ccccc1)NC(=O)[C@H](CC(=O)O)NC(=O)[C@@H]1CCCCNC(=O)CC[C@H](NC(=O)[C@H](CC(=O)O)NC(=O)[C@H](CC(C)C)NC(=O)[C@H](Cc2ccc(O)cc2)NC(=O)[C@H](CCCCN)NC(=O)[C@H](CO)NC(=O)[C@H](Cc2ccc(O)cc2)NC(=O)[C@H](CCC(=O)O)NC(=O)[C@H](CO)NC(=O)[C@@H](NC(=O)[C@H](Cc2ccccc2)NC(=O)[C@@H](NC(=O)CN)[C@@H](C)O)[C@@H](C)O)C(=O)N[C@@H](CCCNC(=N)N)C(=O)N[C@@H](CCCNC(=N)N)C(=O)N[C@@H](C)C(=O)N1)C(C)C)C(=O)N[C@@H](CC(=O)O)C(=O)N[C@H](C(N)=O)[C@@H](C)O
Turning to B9, the “GLP-1 EC50” value in the test with GLP-1 receptor [3] is 151 nM. Besides, the “Glucagon IC50” value in the test with glucagon receptor [4] was 10 to 30 nM.

B10: [(NSG-2)^9]Glucagon(aa2-29)-NH2 (peptide)
peptide: SQGTFTS[NSG‑2]YSKYLDSRRAQDFVQWLMNT-NH2
modifications: reading uncertain
notes: also called peptide no
B10: the IC50 in the test with glucagon receptor [8] is 2350 nM.

B11: [hGlu^9]Glucagon(aa2-29)-NH2 (peptide)
peptide: SQGTFTSXYSKYLDSRRAQDFVQWLMNT
modifications: homoglutamic acid at position 9; C-terminal amide
notes: also called peptide no
B11 yielded an IC50 in the test with glucagon receptor [8] of 8.1 nM.

B12: [hCys^9(SO3H)]Glucagon(aa6-29)-NH2 (peptide)
peptide: FTS[Abu(4-SO3H)]YSKYLDSRRAQDFVQWLMNT-NH2
notes: also called [hCys(SO3)9]Glucagon(aa6-29)-NH2
As to B12, the “cAMP IC50” value with glucagon receptor [9] and with glucagon receptor [11] was 133 nM in each case. Besides, the “cAMP pA2” value with glucagon receptor [9] and in the test with glucagon receptor [11] was 7.16 in each case. Further, the IC50 in the test with glucagon receptor [10] and in the test with glucagon receptor [12] was 59.1 nM throughout.

B13: [A2E3, E16K20(Lactam),D28]G(2~29) (peptide)
peptide: AEGTFTSEYSKYLDERRAKDFVQWLMDT
modifications: lactam 15-19
For B13, the “Glucagon IC50” value with glucagon receptor [4] came to 63 nM.

B14: [hCys^9(SO3H)]Glucagon(aa4-29)-NH2 (peptide)
peptide: GTFTSXYSKYLDSRRAQDFVQWLMNT
HELM: PEPTIDE1{G.T.F.T.S.[O=C([C@H](CCS(=O)(=O)O)N[*:1])[*:2]].Y.S.K.Y.L.D.S.R.R.A.Q.D.F.V.Q.W.L.M.N.T.[am]}$$$$V2.0; N-terminus assumed
SMILES: CSCC[C@H](NC(=O)[C@H](CC(C)C)NC(=O)[C@H](Cc1c[nH]c2ccccc12)NC(=O)[C@H](CCC(N)=O)NC(=O)[C@@H](NC(=O)[C@H](Cc1ccccc1)NC(=O)[C@H](CC(=O)O)NC(=O)[C@H](CCC(N)=O)NC(=O)[C@H](C)NC(=O)[C@H](CCCNC(=N)N)NC(=O)[C@H](CCCNC(=N)N)NC(=O)[C@H](CO)NC(=O)[C@H](CC(=O)O)NC(=O)[C@H](CC(C)C)NC(=O)[C@H](Cc1ccc(O)cc1)NC(=O)[C@H](CCCCN)NC(=O)[C@H](CO)NC(=O)[C@H](Cc1ccc(O)cc1)NC(=O)[C@H](CCS(=O)(=O)O)NC(=O)[C@H](CO)NC(=O)[C@@H](NC(=O)[C@H](Cc1ccccc1)NC(=O)[C@@H](NC(=O)CN)[C@@H](C)O)[C@@H](C)O)C(C)C)C(=O)N[C@@H](CC(N)=O)C(=O)N[C@H](C(N)=O)[C@@H](C)O
As to B14, in the test with glucagon receptor [9], the “cAMP IC50” value turned out to be 68.4 nM and the “cAMP pA2” value was determined as 7.22. The IC50 with glucagon receptor [10] is 41.5 nM.

B15: [hCys^9(SO3H)]Glucagon(aa2-29)-NH2 (peptide)
peptide: SQGTFTS[Abu(4-SO3H)]YSKYLDSRRAQDFVQWLMNT-NH2
On to B15, for which the “cAMP IC50” value with glucagon receptor [9] was found to be 147 nM. The IC50 with glucagon receptor [10] was found to be 13.2 nM.

B16: [hCys^9(SO3H)]Glucagon(aa5-29)-NH2 (peptide)
peptide: TFTSXYSKYLDSRRAQDFVQWLMNT
HELM: PEPTIDE1{T.F.T.S.[O=C([C@H](CCS(=O)(=O)O)N[*:1])[*:2]].Y.S.K.Y.L.D.S.R.R.A.Q.D.F.V.Q.W.L.M.N.T.[am]}$$$$V2.0; N-terminus assumed
SMILES: CSCC[C@H](NC(=O)[C@H](CC(C)C)NC(=O)[C@H](Cc1c[nH]c2ccccc12)NC(=O)[C@H](CCC(N)=O)NC(=O)[C@@H](NC(=O)[C@H](Cc1ccccc1)NC(=O)[C@H](CC(=O)O)NC(=O)[C@H](CCC(N)=O)NC(=O)[C@H](C)NC(=O)[C@H](CCCNC(=N)N)NC(=O)[C@H](CCCNC(=N)N)NC(=O)[C@H](CO)NC(=O)[C@H](CC(=O)O)NC(=O)[C@H](CC(C)C)NC(=O)[C@H](Cc1ccc(O)cc1)NC(=O)[C@H](CCCCN)NC(=O)[C@H](CO)NC(=O)[C@H](Cc1ccc(O)cc1)NC(=O)[C@H](CCS(=O)(=O)O)NC(=O)[C@H](CO)NC(=O)[C@@H](NC(=O)[C@H](Cc1ccccc1)NC(=O)[C@@H](N)[C@@H](C)O)[C@@H](C)O)C(C)C)C(=O)N[C@@H](CC(N)=O)C(=O)N[C@H](C(N)=O)[C@@H](C)O
As to B16, in the test with glucagon receptor [9], the “cAMP IC50” value worked out at 98.3 nM and the “cAMP pA2” value came to 6.77. This molecule had an IC50 with glucagon receptor [10] of 33.9 nM.

B17: [(NSG-1)^9]Glucagon(aa2-29)-NH2 (peptide)
peptide: SQGTFTS[NSG‑1]YSKYLDSRRAQDFVQWLMNT-NH2
modifications: reading uncertain
notes: also called peptide no
Regarding B17, the IC50 in the test with glucagon receptor [8] was determined as 983 nM.

B18: [PLA^5, E^9]Glucagon(aa5-29)-NH2 (peptide)
peptide: {PLA}-FTSEYSKYLDSRRAQDFVQWLMNT-NH2
For the molecule B18, the “IC50(nM) (cAMP, inhibit 0.8 mM Glucagon)” value with glucagon receptor [5] worked out at 328 nM.
